Results taken from patent CN111138528A.

Target: BDBV GP (BDBV)
Experiment: ELISA, GP coated at 1 μg/mL, 5A8 from 10 μg/mL in 1:3 dilutions

B1: 单克隆抗体5A8 (antibody, V domains shown)
VH: EVQLLESGGGLVKPGGSLRLSCAASGFTFSDYYMNWIRQAPGKGLEWVSYISSSGKTIYYADSVKGRFTISRDNAKKSLYLQMNSLRAEDTAVYYCARDREIVISTTILLGSDHYAMDVWGQGTTVTVSS
VL: DIQMTQSPFTLSASVGDRVTITCRASQSINSYLNWYQQKPGKAPKLLIYSASSLQSGVPSRFSGSGSGTDFTLTISSLQPEDFAIYYCQQTYRTPYTFGQGTKVEIKT
EC50: 0.126 µg/mL
fold weaker binding than to EBOV GP: 10 fold
